Results from patent US20090011497 (published 2009).

Biological target: T1, hu-MPL (human, UniProt P40238)
T1 chain: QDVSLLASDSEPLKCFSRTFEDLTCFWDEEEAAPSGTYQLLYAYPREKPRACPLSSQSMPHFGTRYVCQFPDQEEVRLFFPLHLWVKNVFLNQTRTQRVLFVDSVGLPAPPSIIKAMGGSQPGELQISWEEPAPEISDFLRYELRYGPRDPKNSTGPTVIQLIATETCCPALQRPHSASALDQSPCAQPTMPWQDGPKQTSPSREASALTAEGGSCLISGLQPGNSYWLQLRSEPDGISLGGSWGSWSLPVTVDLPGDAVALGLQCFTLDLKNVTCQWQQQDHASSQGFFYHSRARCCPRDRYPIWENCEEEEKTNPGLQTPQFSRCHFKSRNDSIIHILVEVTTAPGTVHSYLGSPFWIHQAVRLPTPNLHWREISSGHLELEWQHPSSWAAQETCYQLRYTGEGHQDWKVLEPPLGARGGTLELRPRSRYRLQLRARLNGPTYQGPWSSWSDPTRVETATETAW
Experiment: SPR

In the case of YCDEGPTLKQWLVCLGLQ [TMP20], the Kd is reported as 0.56 nM.
